Laboratory results as given in patent publication US20240352087A1.

T1: HLA-A*02:01 (human), P04439
T1 chain: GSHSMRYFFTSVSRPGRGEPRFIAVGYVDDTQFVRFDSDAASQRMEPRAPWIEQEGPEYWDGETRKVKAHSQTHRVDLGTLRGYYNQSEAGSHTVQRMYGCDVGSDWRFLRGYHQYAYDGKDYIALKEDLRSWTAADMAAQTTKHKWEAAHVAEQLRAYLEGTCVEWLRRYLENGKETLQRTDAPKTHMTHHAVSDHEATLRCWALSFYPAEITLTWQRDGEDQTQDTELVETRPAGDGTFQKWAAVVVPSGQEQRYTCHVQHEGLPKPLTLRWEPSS

T2: HLA-A*01:01 (human), P04439
T2 chain: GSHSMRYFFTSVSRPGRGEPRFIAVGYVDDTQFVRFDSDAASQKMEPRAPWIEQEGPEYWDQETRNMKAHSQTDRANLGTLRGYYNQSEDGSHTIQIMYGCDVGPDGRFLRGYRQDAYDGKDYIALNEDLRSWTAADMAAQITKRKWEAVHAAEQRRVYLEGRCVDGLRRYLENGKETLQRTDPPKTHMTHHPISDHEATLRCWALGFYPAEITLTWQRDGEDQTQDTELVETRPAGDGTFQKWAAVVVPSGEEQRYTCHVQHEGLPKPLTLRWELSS


Columns and labels:
[1] = molecular target: T1, HLA-A*02:01 (human), P04439; assay: HLA-binding assay; details: chains peptide; modification not given
[2] = molecular target: T2, HLA-A*01:01 (human), P04439; assay: HLA-binding assay; details: chains peptide; modification not given

Row | Binder | IC50 [1] [nM] | IC50 [2] [nM]
1 | VLLLWITAA [HPV E5 46-54 peptide …] | 11 | –
2 | QVDYYGLYY [HPV E2 151-159 peptide …] | – | 18
3 | KSAIVTLTY [HPV E2 329-337 peptide …] | – | 11
